These results are taken from US11872270B2, “A*03 restricted peptides for use in immunotherapy against cancers and related methods” (Immatics Biotechnologies GmbH, priority 2018, dated 2024).

In one assay the target is HLA-A*03:01 (Homo sapiens, UniProt P04439). The assay can be described thus: MHC binding assay (UV-ligand exchange, β2m ELISA).
Settings: not given
From the text: Candidate peptides for T cell based therapies according to the present invention were further tested for their MHC binding capacity (affinity). The individual peptide-MHC complexes were produced by UV-ligand exchange, where a UV-sensitive peptide is cleaved upon UV-irradiation and exchanged with the peptide of interest as analyzed. Only peptide candidates that can effectively bind and stabilize the peptide-receptive MHC molecules prevent dissociation of the MHC complexes. To determine the yield of the exchange reaction, an ELISA was performed based on the detection of the light chain (β2m) of stabilized MHC complexes. The assay was performed as generally described in Rodenko et al. (Rodenko et al., 2006) 96 well MAXISorp plates (NUNC) were coated over night with 2 ug/ml streptavidin in PBS at room temperature, washed 4× and blocked for 1 h at 37° C. in 2% BSA containing blocking buffer. Refolded HLA-A*02:01/MLA-001 monomers served as standards, covering the range of 15-500 ng/ml. Peptide-MHC monomers of the UV-exchange reaction were diluted 100-fold in blocking buffer. Samples were incubated for 1 h at 37° C., washed four times, incubated with 2 ug/ml HRP conjugated anti-β2m for 1 h at 37° C., washed again and detected with TMB solution that is stopped with […]. Absorption was measured at 450 nm. Candidate peptides that show a high exchange yield (preferably higher than 50%, most preferred higher than 75%) are generally preferred for a generation and production of antibodies or fragments thereof, and/or T cell receptors or fragments thereof, as they show sufficient avidity to the MHC molecules and prevent dissociation of the MHC complexes.
Regarding “AVCGGVLVH (listed as Homo sapiens) [SEQ ID NO: 272]”, the “binding to HLA-A*03” value is given as “binds to HLA-A*03”.

Staying with this assay, now noted: binding to HLA-A*03:01, UV-ligand exchange, β2m ELISA.
As for “21 (SSLAELIAK; listed as Homo sapiens) [compound 21]”, the “Peptide exchange (MHC class I binding score, peptide exchange yield)” value (shortened to “Peptide exchange”) was “++ (>20% = ++)”.
As for “14 (VAFFVLPSK; listed as Homo sapiens) [compound 14]”, the “Peptide exchange” value is “++ (>20% = ++)”.
For the substance “6 (SIFGLAPGK; listed as Homo sapiens) [compound 6]”, the “Peptide exchange” value is listed as “++++ (>75% = ++++)”.
With “7 (RLVELAGQSLLK; listed as Homo sapiens) [compound 7]”, the “Peptide exchange” value was “++++ (>75% = ++++)”.
Regarding “204 (VAFIPLSNK; listed as Homo sapiens) [compound 204]”, the “Peptide exchange” value is on record as “++++ (>75% = ++++)”.
As to “102 (RLLQHTPSAR; listed as Homo sapiens) [compound 102]”, the “Peptide exchange” value was “++++ (>75% = ++++)”.
Consider “60 (VVFPFPVNKR; listed as Homo sapiens) [compound 60]”, for which the “Peptide exchange” value was “+++ (>50 = +++)”.
Turning to “48 (KGWNGQIFK; listed as Homo sapiens) [compound 48]”, the “Peptide exchange” value was “+++ (>50 = +++)”.
For the substance “211 (VSLGTPIMK; listed as Homo sapiens) [compound 211]”, the “Peptide exchange” value is reported as “+++ (>50 = +++)”.
On to “261 (AVAQKLLSH; listed as Homo sapiens) [compound 261]”, for which the “Peptide exchange” value is on record as “++++ (>75% = ++++)”.
Consider “223 (GISNPITTSK; listed as Homo sapiens) [compound 223]”, for which the “Peptide exchange” value is recorded as “++++ (>75% = ++++)”.
For the substance “25 (KTWAHCMSY; listed as Homo sapiens) [compound 25]”, the “Peptide exchange” value was “++++ (>75% = ++++)”.
Still for that read-out and setting: the value for “80 (ALCGTQLFY; listed as Homo sapiens) [compound 80]” was “++++ (>75% = ++++)”; that for “12 (KVLTRNIEY; listed as Homo sapiens) [compound 12]” was “+++ (>50 = +++)”; that for “113 (VSIRNTLLY; listed as Homo sapiens) [compound 113]” was “+ (>10% = +)”.
“38 (SLFPYYNNLY; listed as Homo sapiens) [compound 38]”: the “Peptide exchange” value was “+ (>10% = +)”.
On the same count and under the same terms, the value for “128 (KIKKPLSYR; listed as Homo sapiens) [compound 128]” was “++++ (>75% = ++++)”.
Consider “196 (AISSTVLGK; listed as Homo sapiens) [compound 196]”, for which the “Peptide exchange” value was “++++ (>75% = ++++)”.
Turning to “225 (RVYPRPPSKTY; listed as Homo sapiens) [compound 225]”, the “Peptide exchange” value was “++++ (>75% = ++++)”.
On to “203 (IVAFIPLSNK; listed as Homo sapiens) [compound 203]”, for which the “Peptide exchange” value is recorded as “++++ (>75% = ++++)”.
In the case of “62 (GIFPKIMPK; listed as Homo sapiens) [compound 62]”, the “Peptide exchange” value was “++++ (>75% = ++++)”.
The same measure, in the same setting: the value for “99 (RTYTCQVTY; listed as Homo sapiens) [compound 99]” was “++++ (>75% = ++++)”; that for “259 (RSYVPLAH; listed as Homo sapiens) [compound 259]” was “++++ (>75% = ++++)”.
For “120 (TRMQKAGFLYY; listed as Homo sapiens) [compound 120]”, the “Peptide exchange” value is “++ (>20% = ++)”.
With “219 (ALERKFRQK; listed as Homo sapiens) [compound 219]”, the “Peptide exchange” value is “++++ (>75% = ++++)”.
Regarding “115 (AILHPFRAK; listed as Homo sapiens) [compound 115]”, the “Peptide exchange” value was “+++ (>50 = +++)”.
As to “106 (LLRSGLTLR; listed as Homo sapiens) [compound 106]”, the “Peptide exchange” value was “++ (>20% = ++)”.
Take “188 (SSLPRAFQK; listed as Homo sapiens) [compound 188]”: the “Peptide exchange” value is “++ (>20% = ++)”.
For “147 (KLFMPRPK; listed as Homo sapiens) [compound 147]”, the “Peptide exchange” value is recorded as “+++ (>50 = +++)”.
As to “132 (ASSFRPLLSK; listed as Homo sapiens) [compound 132]”, the “Peptide exchange” value was “+++ (>50 = +++)”.
“127 (GLAAGALLLY; listed as Homo sapiens) [compound 127]”: the “Peptide exchange” value was “++ (>20% = ++)”.
“112 (ASLAAAVLAK; listed as Homo sapiens) [compound 112]”: the “Peptide exchange” value is on record as “+++ (>50 = +++)”.
Regarding “19 (ALAAKLEVK; listed as Homo sapiens) [compound 19]”, the “Peptide exchange” value is “++++ (>75% = ++++)”.
Same read-out and setting: as for “53 (KQALSLVRK; listed as Homo sapiens) [compound 53]”, the entry is “+++ (>50 = +++)”.
As for “73 (RCFSGPYLNK; listed as Homo sapiens) [compound 73]”, the “Peptide exchange” value was “++++ (>75% = ++++)”.
Take “87 (RLASVGLDAK; listed as Homo sapiens) [compound 87]”: the “Peptide exchange” value is on record as “++++ (>75% = ++++)”.
Consider “65 (RTIEELQNK; listed as Homo sapiens) [compound 65]”, for which the “Peptide exchange” value was “+++ (>50 = +++)”.
For “210 (KIFQGQINK; listed as Homo sapiens) [compound 210]”, the “Peptide exchange” value is listed as “++++ (>75% = ++++)”.
With “23 (RLSPGPRAY; listed as Homo sapiens) [compound 23]”, the “Peptide exchange” value is “+++ (>50 = +++)”.
The same measure, in the same setting: the value for “178 (RIYVYVKRK; listed as Homo sapiens) [compound 178]” was “+++ (>50 = +++)”.
Turning to “193 (IVYPSATDKTK; listed as Homo sapiens) [compound 193]”, the “Peptide exchange” value is “+++ (>50 = +++)”.
Turning to “83 (KLADSVMAGK; listed as Homo sapiens) [compound 83]”, the “Peptide exchange” value is given as “++++ (>75% = ++++)”.
The same measure, in the same setting: as for “252 (AVYNYPEGAAY; listed as Homo sapiens) [compound 252]”, the entry is “++++ (>75% = ++++)”; as for “119 (RMGFRTLSK; listed as Homo sapiens) [compound 119]”, “++++ (>75% = ++++)”.
For the substance “15 (RLYAPVVNISRL; listed as Homo sapiens) [compound 15]”, the “Peptide exchange” value is “+++ (>50 = +++)”.
Still for that read-out and setting: as for “92 (KRIPFRPLAK; listed as Homo sapiens) [compound 92]”, the entry is “++ (>20% = ++)”.
Same read-out and setting: as for “199 (IVFPDVISK; listed as Homo sapiens) [compound 199]”, the entry is “++++ (>75% = ++++)”.
Consider “11 (PLPRPGAVLK; listed as Homo sapiens) [compound 11]”, for which the “Peptide exchange” value was “++ (>20% = ++)”.
Still for that read-out and setting: the value for “63 (SSFRPLLSK; listed as Homo sapiens) [compound 63]” was “++++ (>75% = ++++)”; that for “79 (AVAAVLLSR; listed as Homo sapiens) [compound 79]” was “+++ (>50 = +++)”; that for “143 (KTLGKIAEK; listed as Homo sapiens) [compound 143]” was “++++ (>75% = ++++)”.
Regarding “180 (RLKMAQESVSK; listed as Homo sapiens) [compound 180]”, the “Peptide exchange” value was “++++ (>75% = ++++)”.
Same read-out and setting: as for “88 (GTHVWVGLYK; listed as Homo sapiens) [compound 88]”, the entry is “++++ (>75% = ++++)”.
For “195 (KLQAKVLQY; listed as Homo sapiens) [compound 195]”, the “Peptide exchange” value is reported as “++++ (>75% = ++++)”.
Take “54 (GVTITKTLK; listed as Homo sapiens) [compound 54]”: the “Peptide exchange” value is recorded as “+++ (>50 = +++)”.
Take “59 (KINQYIIKK; listed as Homo sapiens) [compound 59]”: the “Peptide exchange” value is recorded as “+++ (>50 = +++)”.
In the case of “16 (KVFAEHKISY; listed as Homo sapiens) [compound 16]”, the “Peptide exchange” value is recorded as “+++ (>50 = +++)”.
